# T1: rh-CD19 (UniProt P15391 20-291, limits assumed)
# T1 construct: 'rh-' is not explained
# T1 sequence (looked up): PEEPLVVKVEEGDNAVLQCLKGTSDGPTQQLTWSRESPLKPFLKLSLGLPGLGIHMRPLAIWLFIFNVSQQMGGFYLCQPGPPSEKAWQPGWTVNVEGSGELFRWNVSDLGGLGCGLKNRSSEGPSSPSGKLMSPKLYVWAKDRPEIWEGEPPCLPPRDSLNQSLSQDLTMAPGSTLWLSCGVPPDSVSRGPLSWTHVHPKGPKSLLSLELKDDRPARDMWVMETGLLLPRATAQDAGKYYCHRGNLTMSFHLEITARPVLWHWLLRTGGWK
# T2: B-Defensin-3 (Homo sapiens (Human), UniProt P81534 23-67, not fully specified)
# T2 construct: also called β-defensin
# T2 peptide: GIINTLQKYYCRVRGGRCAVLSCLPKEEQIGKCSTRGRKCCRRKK
# B1: TMEB762 (antibody, human IgG4 S228P, kappa, F234A L235A, V domains shown)
# VH: EVQLLESGGGLVQPGGSLRLSCAASGFTFSSYSMSWVRQAPGKGLEWVSVISGSGGFTDYADSVKGRFTISRDNSKNTLYLQMNSLRAEDTAVYYCARMPLNSPHDYWGQGTLVTVSS
# VL: DIQMTQSPSSLSASVGDRVTITCRASQGIRNDLGWYQQKPGKAPKLLIYAASSLQSGVPSRFSGSGSGTDFTLTISSLQPEDFATYYCLQDYNYPLTFGGGTKVEIKR
# notes: IgG4PAA; re-engineered variant of TMEB675 (HC R14P, P20L, H81Q; LC A1D, A91P, Kabat); Bivalent TMEFF2 parent of TMCB150; also called anti-TMEFF2 antibody; VH TMEH459
# B2: TMCB150 (bispecific antibody, human IgG4 S228P, kappa, lambda, F234A L235A)
# heavy 1: not shown
# light 1: not shown
# heavy 2: QVQLQQSGPRLVRPSQTLSLTCAISGDSVFNNNAAWSWIRQSPSRGLEWLGRTYYRSKWLYDYAVSVKSRITVNPDTSRNQFTLQLNSVTPEDTALYYCARGYSSSFDYWGQGTLVTVSSASTKGPSVFPLAPCSRSTSESTAALGCLVKDYFPEPVTVSWNSGALTSGVHTFPAVLQSSGLYSLSSVVTVPSSSLGTKTYTCNVDHKPSNTKVDKRVESKYGPPCPPCPAPEAAGGPSVFLFPPKPKDTLMISRTPEVTCVVVDVSQEDPEVQFNWYVDGVEVHNAKTKPREEQFNSTYRVVSVLTVLHQDWLNGKEYKCKVSNKGLPSSIEKTISKAKGQPREPQVYTLPPSQEEMTKNQVSLTCLVKGFYPSDIAVEWESNGQPENNYKTTPPVLDSDGSFLLYSKLTVDKSRWQEGNVFSCSVMHEALHNHYTQKSLSLSLGK
# light 2: QSALTQPASVSGSPGQSITISCTGTSSNIGTYKFVSWYQQHPDKAPKVLLYEVSKRPSGVSSRFSGSKSGNTASLTISGLQAEDQADYHCVSYAGSGTLLFGGGTKLTVLGQPKAAPSVTLFPPSSEELQANKATLVCLISDFYPGAVTVAWKADSSPVKAGVETTTPSKQSNNKYAASSYLSLTPEQWKSHRSYSCQVTHEGSTVEKTVAPTECS
# notes: made by Fab arm exchange of the parental IgG4PAA mAbs, so the chains are those of TMEB762 (HC 91, LC 92) and CD3B376 (HC 78, LC 79); also called TMEB762xCD3B376; bispecific anti-TMEFF2/CD3 antibody
# B3: CD3B376 (antibody, V domains shown)
# VH: QVQLQQSGPRLVRPSQTLSLTCAISGDSVFNNNAAWSWIRQSPSRGLEWLGRTYYRSKWLYDYAVSVKSRITVNPDTSRNQFTLQLNSVTPEDTALYYCARGYSSSFDYWGQGTLVTVSS
# VL: QSALTQPASVSGSPGQSITISCTGTSSNIGTYKFVSWYQQHPDKAPKVLLYEVSKRPSGVSSRFSGSKSGNTASLTISGLQAEDQADYHCVSYAGSGTLLFGGGTKLTVLG
# notes: HC is IgG4 S228P, F234A, L235A, F405L, R409K; also called anti-CD3 antibody; bivalent CD3B376
# Experiments:
# Human IgG = assay: SPR (Biacore 8K), 1 µM antibody over immobilized protein, blank subtracted
# Procedure: (§1) Non-specific binding of the lead molecule to unrelated surfaces is determined by biosensor technology (Biacore 8K). Antibody is passed over SPR surfaces coated with unrelated proteins. […] Lead molecule is tested at the final concentration of 1 μM. Irrelevant surfaces include negatively charged protein (Soy Trypsin Inhibitor), positively charged protein (Lysozyme and β-defensin), hydrophobic (Rh-integrin a4b7), human IgG, sticky protein (Rh-CD19). Proper controls are used in this experiment. Lead is flown over two surfaces, one is a blank and the other has a molecule directly immobilized. The response unit (RU) level is determined by subtracting the blank RU from the test surface RU. The RU of TMCB150 and the parental mAbs are given below in the table. A response unit ≥100 predicts high risks for non-specific binding to charged/hydrophobic/IgG surfaces which would create challenges during manufacturing and translate to poor PK properties. None of the antibodies show non-specific binding to irrelevant surfaces predicting low to no risks for manufacturing and in-vivo behavior.
# Soy Trypsin Inhibitor = target: T3, Soy Trypsin Inhibitor (soy); assay: as above
# T3 construct: also called STI
# Procedure: as §1
# rh-CD19 [1] = target: T1, rh-CD19; assay: as above
# Procedure: as §1
# B-Defensin-3 [2] = target: T2, B-Defensin-3; assay: as above
# Procedure: as §1
# Lysozyme = assay: as above
# Procedure: as §1
# rh-Integrin a4b7 [3] = target: T4, rh-Integrin a4b7 (UniProt P13612 34-977; P26010 20-723); assay: as above
# T4 construct: 'rh-' is not explained
# Procedure: as §1
# rh-CD19 [4] = target: T1, rh-CD19; assay: SPR (Biacore 8K), antibody passed over immobilized protein
# Procedure: as §1
# B-Defensin-3 [5] = target: T2, B-Defensin-3; assay: as above
# Procedure: as §1
# rh-Integrin a4b7 [6] = target: T4, rh-Integrin a4b7; assay: as above
# Procedure: as §1
# T4 sequence (P13612 34-977, chain 1 of 2): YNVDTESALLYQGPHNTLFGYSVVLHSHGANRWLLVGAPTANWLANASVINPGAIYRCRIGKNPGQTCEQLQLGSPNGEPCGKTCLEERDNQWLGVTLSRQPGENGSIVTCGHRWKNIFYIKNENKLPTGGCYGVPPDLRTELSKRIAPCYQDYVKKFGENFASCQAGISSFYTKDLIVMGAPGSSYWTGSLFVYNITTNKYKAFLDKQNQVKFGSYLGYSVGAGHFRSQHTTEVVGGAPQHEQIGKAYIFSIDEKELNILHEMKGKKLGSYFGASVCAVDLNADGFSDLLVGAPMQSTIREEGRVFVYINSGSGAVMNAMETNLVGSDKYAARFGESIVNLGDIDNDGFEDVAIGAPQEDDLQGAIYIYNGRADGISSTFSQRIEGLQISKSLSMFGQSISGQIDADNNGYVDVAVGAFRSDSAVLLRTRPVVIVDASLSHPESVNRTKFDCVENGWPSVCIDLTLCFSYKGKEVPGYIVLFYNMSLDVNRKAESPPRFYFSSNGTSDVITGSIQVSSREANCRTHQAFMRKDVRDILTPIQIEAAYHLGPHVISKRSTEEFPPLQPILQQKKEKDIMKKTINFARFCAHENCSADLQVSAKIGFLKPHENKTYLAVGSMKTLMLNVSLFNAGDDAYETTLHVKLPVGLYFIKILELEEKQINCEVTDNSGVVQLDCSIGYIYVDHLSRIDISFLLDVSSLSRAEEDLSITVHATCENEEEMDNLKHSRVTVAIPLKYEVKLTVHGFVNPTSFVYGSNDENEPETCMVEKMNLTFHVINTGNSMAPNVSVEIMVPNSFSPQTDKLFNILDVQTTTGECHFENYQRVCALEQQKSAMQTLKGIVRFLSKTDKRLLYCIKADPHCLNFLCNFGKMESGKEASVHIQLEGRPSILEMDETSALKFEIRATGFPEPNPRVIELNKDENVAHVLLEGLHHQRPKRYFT
# T4 sequence (P26010 20-723, chain 2 of 2): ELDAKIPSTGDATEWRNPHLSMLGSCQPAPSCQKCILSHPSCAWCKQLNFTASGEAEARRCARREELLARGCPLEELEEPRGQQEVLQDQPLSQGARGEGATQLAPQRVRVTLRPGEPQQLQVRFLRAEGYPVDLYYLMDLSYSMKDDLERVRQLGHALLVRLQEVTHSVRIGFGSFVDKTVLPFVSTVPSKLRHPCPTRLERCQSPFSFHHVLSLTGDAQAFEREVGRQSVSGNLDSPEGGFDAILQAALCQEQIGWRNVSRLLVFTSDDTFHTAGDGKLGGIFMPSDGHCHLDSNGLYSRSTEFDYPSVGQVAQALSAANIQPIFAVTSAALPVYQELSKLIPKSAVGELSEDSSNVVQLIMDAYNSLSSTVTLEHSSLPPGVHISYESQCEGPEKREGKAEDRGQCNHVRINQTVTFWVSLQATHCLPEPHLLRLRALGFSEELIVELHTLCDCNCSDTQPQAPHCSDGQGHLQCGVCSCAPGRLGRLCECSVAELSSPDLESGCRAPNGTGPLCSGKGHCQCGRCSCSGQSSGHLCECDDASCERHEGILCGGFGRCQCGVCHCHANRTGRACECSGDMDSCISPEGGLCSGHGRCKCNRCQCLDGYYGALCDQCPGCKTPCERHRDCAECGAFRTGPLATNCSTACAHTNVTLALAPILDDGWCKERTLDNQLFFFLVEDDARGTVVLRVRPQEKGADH
# T3 sequence (P01070 25-205): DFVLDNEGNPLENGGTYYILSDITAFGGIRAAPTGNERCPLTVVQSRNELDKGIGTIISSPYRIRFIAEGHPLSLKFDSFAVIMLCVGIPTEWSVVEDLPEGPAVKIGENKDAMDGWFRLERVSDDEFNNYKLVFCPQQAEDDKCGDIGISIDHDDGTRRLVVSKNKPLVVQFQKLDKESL
# Chain of Lysozyme (P00698 19-147): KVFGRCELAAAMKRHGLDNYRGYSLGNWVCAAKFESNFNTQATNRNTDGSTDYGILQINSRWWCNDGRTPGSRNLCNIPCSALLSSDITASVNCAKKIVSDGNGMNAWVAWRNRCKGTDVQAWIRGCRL
Binder,response unit (RU) (Human IgG),response unit (RU) (Soy Trypsin Inhibitor),response unit (RU) (rh-CD19 [1]),response unit (RU) (B-Defensin-3 [2]),response unit (RU) (Lysozyme),response unit (RU) (rh-Integrin a4b7 [3]),binding result (rh-CD19 [4]),binding result (B-Defensin-3 [5]),binding result (rh-Integrin a4b7 [6])
B1,8.4,0,3.3,4.1,4.6,0,no binding,no binding,no binding
B2,7.5,1.6,3.4,6.4,4.2,0,no binding,no binding,no binding
B3,0.4,19.5,0,3.1,0.2,0,no binding,no binding,no binding

# — patent US20190359711A1 (Janssen / Centocor, published 2019)
